Laboratory results taken from patent US20210253718A1, “FRIZZLED5 PROTEIN-BINDING AGENTS” (Modmab Therapeutics Corporation, priority 2016, published 2021).
Numbering of substitutions follows the chain as printed.

B1: Fab-2899: anti-FZD5 Fab with antibody variable region Fv-2899; CDR SEQ ID NOs: 35, 36, 38, 77, 114, 153 (antibody, V domains shown)
VH: EVQLVESGGGLVQPGGSLRLSCAASGFNLYYYYMHWVRQAPGKGLEWVASIYPSSGSTSYADSVKGRFTISADTSKNTAYLQMNSLRAEDTAVYYCARGALDYWGQGTLVTVSS
VL: DIQMTQSPSSLSASVGDRVTITCRASQSVSSAVAWYQQKPGKAPKLLIYSASSLYSGVPSRFSGSRSGTDFTLTISSLQPEDFATYYCQQWYSSYGLITFGQGTKVEIK
B2: Fab-2902: anti-FZD5 Fab with antibody variable region Fv-2902; CDR SEQ ID NOs: 35, 36, 41, 80, 117, 153 (antibody, V domains shown)
VH: B1 VH with L29I, Y30S, M34I, Y52S, P53S, G56S
VL: B1 VL with S93A, S94F, Y95G, G96A
B3: Fab-2918: anti-FZD5 Fab with antibody variable region Fv-2918; CDR SEQ ID NOs: 35, 36, 57, 96, 133, 169 (antibody, V domains shown)
VH: EVQLVESGGGLVQPGGSLRLSCAASGFNLSYSSIHWVRQAPGKGLEWVASIYSSYSSTSYADSVKGRFTISADTSKNTAYLQMNSLRAEDTAVYYCARFGYWAIDYWGQGTLVTVSS
VL: DIQMTQSPSSLSASVGDRVTITCRASQSVSSAVAWYQQKPGKAPKLLIYSASSLYSGVPSRFSGSRSGTDFTLTISSLQPEDFATYYCQQAFGASLFTFGQGTKVEIK
B4: Fab-2928: anti-FZD5 Fab with antibody variable region Fv-2928; CDR SEQ ID NOs: 35, 36, 67, 105, 143, 175 (antibody, V domains shown)
VH: EVQLVESGGGLVQPGGSLRLSCAASGFNISYSSIHWVRQAPGKGLEWVASIYPSYSSTYYADSVKGRFTISADTSKNTAYLQMNSLRAEDTAVYYCARYYAMDYWGQGTLVTVSS
VL: DIQMTQSPSSLSASVGDRVTITCRASQSVSSAVAWYQQKPGKAPKLLIYSASSLYSGVPSRFSGSRSGTDFTLTISSLQPEDFATYYCQQAFYYPITFGQGTKVEIK
B5: Fab-2925: anti-FZD5 Fab with antibody variable region Fv-2925; CDR SEQ ID NOs: 35, 36, 64, 102, 140, 172 (antibody, V domains shown)
VH: B3 VH with I34M, S53P, S56G, S59Y, F99Y, W102F, A103G, I104L
VL: B1 VL with W91A, Y92W, S93V, S94Y, Y95A, G96S, I98F
B6: Fab-2929: anti-FZD5 Fab with antibody variable region Fv-2929; CDR SEQ ID NOs: 35, 36, 68, 106, 144, 162 (antibody, V domains shown)
VH: B1 VH with L29I, Y30S, M34I, G56S, L101M
VL: B1 VL

These molecules were tested against T1, FZD4 CRD (Homo sapiens, UniProt Q9ULV1) (assay: Flow cytometry of anti-FZD5 Fab binding to CHO cells overexpressing Frizzled CRD).
T1 construct: E42-V167; GPI anchor signal (C); expressed in transfected cells; host or cells: CHO cells, lentiviral pLenti-puro
T1 sequence (Q9ULV1 42-167): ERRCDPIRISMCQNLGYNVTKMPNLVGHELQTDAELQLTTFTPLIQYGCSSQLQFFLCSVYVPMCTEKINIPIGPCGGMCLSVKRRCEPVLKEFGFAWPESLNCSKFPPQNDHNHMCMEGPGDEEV
Description: (§1) Plasmids: pLCKO lentiviral vector used for knockout (TKO) library construction and expression of individual gRNAs was constructed as described previously (Hart et al., 2015). Briefly, single guide RNA (sgRNA) scaffold was amplified from px330 (Addgene 42230) and cloned into pLKO.TRC005 lentiviral vector (Broad Institute, Cambridge, Mass.) using AgeI/EcoRI restriction sites. BfuAI sites were added at the 5′ end of the sgRNA scaffold for cloning the TKO library or individual gRNA target sequences. Lenti Cas9-2A-BsdR vector used to generate Cas9 stable expression cell lines was constructed as described previously (Hart et al., 2015). Briefly, lentiCRISPR pXPR_001 (Addgene 49535) was modified through removal of the sgRNA scaffold region through NdeI/EcoRI digest and blunt ends generation using Large Klenow Fragment (NEB). 2A-puro was replaced with 2A-BsdR by PCR using the NheI/MluI sites. Each of the 10 human Frizzled cysteine rich domains (CRDs) were cloned into the lentiviral expression plasmid pLenti-puro in the following cassette: FZD_CRD-MYC-GPI.
(§2) Flow cytometry: Primary staining of cells was performed by treatment with 200 nM Frizzled profiler Fab. Alexa Fluor 488 AffiniPure F(ab′)2 was used as the secondary antibody (Jackson ImmunoResearch #109-546-097). c-Myc (9E10) IgG1 (primary antibody, Santa Cruz, lot #D0306) and Alexa Fluor 488 IgG (secondary antibody, Life technologies, lot #1458649) were used as controls. Dead cells were excluded by staining with Fixable Viability Dye eFluor 660 (eBioscience, catalogue number 65-0864). All reagents were used as per manufacturer's instructions. Flow cytometry was performed on a BD FACSCanto II flow cytometer (BD Biosciences), and data were analyzed with FlowJo software (FlowJo, LLC).
(§3) To confirm that the FZD5-WNT7B circuit is not driven simply by expression and rule out the possibility of a disconnect between RNA and protein levels for the Wnt receptors in HPAF-II cells, a panel of recombinant Fabs were generated, alternatively referred to herein as ‘Frizzled profiler’, that can detect and discriminate all but one of the ten Frizzled receptors. […] To characterize the binding specificity of these Fabs on cells, a panel of 10 CHO cell lines was generated, each expressing the CRD domain of a different myc-tagged Frizzled family member anchored at the plasma membrane through a GPI anchor (CHO-myc-FZDGPI). Despite the high sequence identity between Frizzled family members (FIG. 7A, FIG. 7B), selective Fabs were identified for FZD4, FZD5, FZD6 and FZD10 as assessed by immunofluorescence and flow cytometry (FIG. 7D and FIG. 8). […] The FZD8 CRD is most homologous to that of FZD5 (FIG. 7B). These Fabs can be used to discriminate expression of FZD1, FZD2, FZD4, FZD5, FZD6, FZD7, FZD8, FZD9 and FZD10 (FIG. 7D and FIG. 8). The ‘Frizzled profiler’ therefore consists of 10 different Fabs that can be used to discriminate expression of 9 different Frizzled family members. The Frizzled profiler was then used to confirm that HPAF-II cells express FZD1, FZD5, FZD6 and possibly FZD8 (FIG. 7E).
(§4) The binding of anti-FZD5 Fabs to cell surface-expressed Frizzled protein was further determined for each member of the Frizzled family via flow cytometry and immunofluorescence analysis of a panel of 10 CHO cell lines, each ectopically over-expressing the extracellular cysteine-rich domain (CRD) of a different Frizzled protein family member.

| Molecule | Median fluorescence, Frizzled CRD overexpressed on CHO cells: FZD4 |
| --- | --- |
| B1 | 11.86 |
| B2 | 10.27 |

These molecules were tested against T2, FZD1 CRD (Homo sapiens, UniProt Q9UP38) in the same assay as above.
T2 construct: D112-P238; GPI anchor signal (C); expressed in transfected cells; host or cells: CHO cells, lentiviral pLenti-puro
Description: as §1, §2, §3, §4

| Molecule | Median fluorescence, Frizzled CRD overexpressed on CHO cells: FZD1 |
| --- | --- |
| B3 | 11.97 |
| B4 | 18.43 |
| B5 | 19.46 |
| B6 | 7.64 |

What follows are molecules tested against T1, FZD4 CRD (assay: Immunofluorescence of anti-FZD5 Fab binding to CHO cells overexpressing Frizzled CRD).
Parameters: key: −: no binding; +: very weak binder; ++: weak binder; +++: good binder; ++++: very good binder
In short: (§5)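 Immunofluorescence readout of anti-FZD5 Fab staining on CHO cells ectopically overexpressing a single Frizzled cysteine-rich domain. Each CRD was fused to a myc tag and GPI anchor for plasma-membrane display; flow cytometry was run in parallel.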

| Molecule | Immunofluorescence binding, Frizzled CRD overexpressed on CHO cells: FZD4 |
| --- | --- |
| B3 | − |
| B4 | − |
| B1 | − |
| B5 | − |
| B6 | − |
| B2 | − |

These molecules were tested against T2, FZD1 CRD in the same assay as above.
Parameters: key: −: no binding; +: very weak binder; ++: weak binder; +++: good binder; ++++: very good binder
In short: as §5

| Molecule | Immunofluorescence binding, Frizzled CRD overexpressed on CHO cells: FZD1 |
| --- | --- |
| B3 | − |
| B4 | − |
| B1 | +++ |
| B5 | ++ |
| B6 | − |
| B2 | − |

Each molecule was assayed against T3, FZD3 CRD (Homo sapiens, UniProt Q9NPG1) in the same assay as above.
T3 construct: CRD of FZD1, FZD2, FZD3, FZD4, FZD5, FZD6, FZD7, FZD8, FZD9 or FZD10; GPI anchor signal (C); expressed in transfected cells; host or cells: CHO cells, lentiviral pLenti-puro
T3 sequence (Q9NPG1 23-136 limits assumed): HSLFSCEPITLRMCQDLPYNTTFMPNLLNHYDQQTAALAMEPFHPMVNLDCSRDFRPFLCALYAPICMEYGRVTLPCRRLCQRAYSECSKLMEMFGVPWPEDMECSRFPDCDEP
Parameters: key: −: no binding; +: very weak binder; ++: weak binder; +++: good binder; ++++: very good binder
In short: as §5

| Molecule | Immunofluorescence binding, Frizzled CRD overexpressed on CHO cells: FZD3 |
| --- | --- |
| B3 | − |
| B4 | − |
| B1 | − |
| B5 | − |
| B6 | − |
| B2 | − |

The molecules below were run against T4, FZD9 CRD (Homo sapiens, UniProt O00144) in the same assay as above.
T4 construct: G35-A161; GPI anchor signal (C); expressed in transfected cells; host or cells: CHO cells, lentiviral pLenti-puro
T4 sequence (O00144 35-161): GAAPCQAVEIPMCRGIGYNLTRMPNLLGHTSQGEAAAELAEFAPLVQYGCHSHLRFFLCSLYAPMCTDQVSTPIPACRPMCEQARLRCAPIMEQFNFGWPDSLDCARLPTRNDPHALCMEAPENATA
Parameters: key: −: no binding; +: very weak binder; ++: weak binder; +++: good binder; ++++: very good binder
In short: as §5

| Molecule | Immunofluorescence binding, Frizzled CRD overexpressed on CHO cells: FZD9 |
| --- | --- |
| B3 | − |
| B4 | − |
| B1 | − |
| B5 | − |
| B6 | − |
| B2 | − |

Each molecule was assayed against T5, FZD10 CRD (Homo sapiens, UniProt Q9ULW2) in the same assay as above.
T5 construct: 30-156; GPI anchor signal (C); expressed in transfected cells; host or cells: CHO cells, lentiviral pLenti-puro
T5 sequence (Q9ULW2 30-156): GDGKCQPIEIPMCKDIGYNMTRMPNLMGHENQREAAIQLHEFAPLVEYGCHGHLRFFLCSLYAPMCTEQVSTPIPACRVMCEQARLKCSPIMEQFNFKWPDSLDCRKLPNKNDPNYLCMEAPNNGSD
Parameters: key: −: no binding; +: very weak binder; ++: weak binder; +++: good binder; ++++: very good binder
In short: as §5

| Molecule | Immunofluorescence binding, Frizzled CRD overexpressed on CHO cells: FZD10 |
| --- | --- |
| B3 | − |
| B4 | − |
| B1 | − |
| B5 | − |
| B6 | − |
| B2 | − |
